Patent US20260042854A1 (SCIWIND BIOSCIENCES USA, published 2026)

T1: mouse GLP-1R (NM_021332.2) on HEK293 cells (mouse, UniProt O35659 22-463)
T1 sequence (looked up): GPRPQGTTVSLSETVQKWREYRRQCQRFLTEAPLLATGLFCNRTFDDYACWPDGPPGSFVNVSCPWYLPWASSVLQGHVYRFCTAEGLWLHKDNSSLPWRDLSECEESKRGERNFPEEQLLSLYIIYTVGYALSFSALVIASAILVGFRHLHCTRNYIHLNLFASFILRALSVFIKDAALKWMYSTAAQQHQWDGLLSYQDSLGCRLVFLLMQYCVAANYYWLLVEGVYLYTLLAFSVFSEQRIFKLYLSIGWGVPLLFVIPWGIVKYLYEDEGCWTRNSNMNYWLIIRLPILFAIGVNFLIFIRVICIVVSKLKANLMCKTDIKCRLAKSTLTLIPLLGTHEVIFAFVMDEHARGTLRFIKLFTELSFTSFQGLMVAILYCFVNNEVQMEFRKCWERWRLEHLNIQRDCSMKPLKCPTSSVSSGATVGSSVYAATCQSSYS


Key:
[1] = target: T2, hGLP-1R on the cell membrane (HEK293 cells overexpressing hGLP-1R) (human, UniProt P43220 24-463); assay: flow cytometry on HEK293 cells overexpressing hGLP-1R, PE anti-human IgG Fc
T2 construct: whole, on cells; also called full-length hGLP-1R; human GLP-1R

[2] = target: T2, hGLP-1R on the cell membrane (HEK293 …); assay: cell-based or functional assay
[3] = target: monkey GLP-1R (JN033215.1) on HEK293 cells (monkey); assay: cell-based or functional assay
[4] = target: T2, hGLP-1R on the cell membrane (HEK293 …); assay: cell-based or functional assay; remark: listed apart in the source
[5] = target: T3, extracellular domain of hGLP-1R (NP_002053.3, aa 24-145), recombinant protein (human, UniProt P43220 24-145); assay: ELISA, plate coated with hGLP-1R extracellular domain, anti-human Fc-HRP detection
T3 construct: range 24-145; Expressed as a recombinant protein; also called hGLP-1R recombinant protein

[6] = target: T1, mouse GLP-1R (NM_021332.2) on HEK293 …; assay: cell-based or functional assay

Binder	EC50 [1] [nM]	IC50 (nM), inhibition of GLP-1 (1 ng/ml) induced cAMP (HTRF) in HEK293 cells transfected with human GLP-1R [2] [nM]	IC50 (nM), inhibition of GLP-1 (1 ng/ml) induced cAMP (HTRF) in HEK293 cells transfected with monkey GLP-1R [3] [nM]	IC50, inhibition of GLP-1 (2.5 ng/mL) activity in hGLP-1R-CRE-Luciferase-HEK293 reporter gene assay [4] [nM]	EC50 [5] [nM]	IC50 (nM), inhibition of GLP-1 (6 ng/ml) induced cAMP (HTRF) in HEK293 cells transfected with mouse GLP-1R [6] [nM]
P16288 (antibody, human IgG4 S228P, kappa, V domains shown, Fully human Fab from a phage library, linked to IgG4 (S228P) constant regions; also called anti-GLP-1R antibody P16288) VH: QVQLVQSGAEMKKPGASVKVSCKTSGYRFSTYVISWVRQTPGQGLEWMGWISPYTGDIDYAQKFQGRVTITADESTSTAYMELSRLRSDDTAVYYCARERDGYNFPGMDVWGQGTTVTVSS VL: DIQLTQSPSFLSASVGDRVTITCRASQGISSYLAWYQQKPGRAPKLLIYSASTLQRGVPSRFSGSGSGTDFTLTISSLQPEDYATYYCQQADSFPPSFGPGTKVDIKR	9.9	211	162	13.4	0.013	
P16289 (antibody, human IgG4 S228P, kappa, V domains shown, Fully human Fab from a phage library, linked to IgG4 (S228P) constant regions; also called anti-GLP-1R antibody P16289) VH: EVQLVETGGGVVQPGRSLRLSCAASGFTFSSYAMHWVRQAPGKGLEWVAVISYDGSNKYYADSVKGRFTISRDNSKNTLYLQMNSLRAEDTAVYYCAREGYSSSWTYYYYYYMDVWGKGTMVTVSS VL: DIQLTQSPSSLSASVGDRVTITCRASQGVSRALAWYQQKPGKAPKLLIYDASYLEDGVPSRFSGSGSGTDFTLTISSLQPEDFATYYCQQSYSTPYTFGQGTKLEIKR	> 137	> 5500	> 5500	> 2820	0.0048	> 5500
